T1: DLL3 on tumor cells of the SHP-77 and NCI-H82 cell lines (UniProt Q9NYJ7 27-618, limits assumed)
T1 construct: whole, on cells; also called cellular targets
T1 sequence (looked up): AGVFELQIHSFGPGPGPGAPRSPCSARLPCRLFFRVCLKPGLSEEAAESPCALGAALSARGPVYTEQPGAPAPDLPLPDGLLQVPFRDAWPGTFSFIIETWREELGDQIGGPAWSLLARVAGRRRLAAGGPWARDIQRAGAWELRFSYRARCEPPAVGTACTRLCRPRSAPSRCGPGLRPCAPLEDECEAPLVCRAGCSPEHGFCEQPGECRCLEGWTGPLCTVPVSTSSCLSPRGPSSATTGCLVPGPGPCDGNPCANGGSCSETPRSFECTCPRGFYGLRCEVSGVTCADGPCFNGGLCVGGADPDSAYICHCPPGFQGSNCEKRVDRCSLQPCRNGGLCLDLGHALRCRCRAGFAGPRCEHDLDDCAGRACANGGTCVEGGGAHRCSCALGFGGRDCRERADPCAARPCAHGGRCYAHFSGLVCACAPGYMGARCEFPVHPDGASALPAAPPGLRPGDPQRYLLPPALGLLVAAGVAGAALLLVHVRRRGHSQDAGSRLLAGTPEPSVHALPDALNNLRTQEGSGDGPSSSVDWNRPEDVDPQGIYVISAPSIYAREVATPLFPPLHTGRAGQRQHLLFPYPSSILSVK


Tests used:
[1] = target: T2, purified human/cynomolgus/dog/mouse/rat or minipig DLL3 antigen (ELISA coat) (human/cynomolgus/dog/mouse/rat or …); test: ELISA, plate coated with purified DLL3 antigen, HRP secondary (FIG. 8)
T2 construct: May be the same protein as the his-tagged antigen used for BLI
T2 sequence (Q9NYJ7 whole entry): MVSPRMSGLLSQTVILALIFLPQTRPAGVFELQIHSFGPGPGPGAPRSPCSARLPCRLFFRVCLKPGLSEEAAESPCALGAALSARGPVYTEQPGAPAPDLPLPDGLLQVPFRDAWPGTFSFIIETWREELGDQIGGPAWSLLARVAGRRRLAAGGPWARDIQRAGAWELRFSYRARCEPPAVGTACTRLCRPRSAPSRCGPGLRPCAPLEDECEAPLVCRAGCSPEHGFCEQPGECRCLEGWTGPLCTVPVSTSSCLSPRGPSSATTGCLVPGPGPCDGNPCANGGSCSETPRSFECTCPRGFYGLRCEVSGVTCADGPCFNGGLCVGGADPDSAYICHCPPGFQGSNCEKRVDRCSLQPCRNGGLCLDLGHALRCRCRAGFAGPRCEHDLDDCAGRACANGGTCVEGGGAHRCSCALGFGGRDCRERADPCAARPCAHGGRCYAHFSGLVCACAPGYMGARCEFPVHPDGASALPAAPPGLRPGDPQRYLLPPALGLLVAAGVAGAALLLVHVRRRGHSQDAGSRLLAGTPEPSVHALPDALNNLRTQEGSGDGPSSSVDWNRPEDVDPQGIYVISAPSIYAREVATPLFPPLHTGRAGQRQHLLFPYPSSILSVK
Protocol: (§1) Binding affinity of the novel antigen binding constructs to a purified human/cynomolgus/dog/mouse/rat or minipig DLL3 antigen was assessed using ELISA. For this assay, a 96 well ELISA plate was coated with the DLL3 antigen diluted to a concentration of […] in coating buffer (0.05M sodium carbonate-bicarbonate buffer, pH 9.6). 100 μl of this coating solution was added to each well in the plate and incubate at 4° C. overnight. The plate was washed 3 times with 300 μl per well of washing buffer (PBS with 0.05% Tween-20). After the last wash, the plate was blocked by adding to each well 200 μl of blocking buffer (PBS with 1% BSA) warmed to room temperature. The plate was then incubated at room temperature for 1 hour under gentle agitation. After blocking, the plate was washed 3 times with 300 μl per well of washing buffer. Dilution samples for each minibody were created by making 2.5× dilutions from a starting sample at 100 ng/mL, or 250 ng/mL, or 1000 ng/mL or 3000 ng/mL in 100 μL sample buffer (PBS with 1% BSA). The dilution samples were transferred to the assay plate and incubated at room temperature for 1 hour under gentle agitation. The plate was then washed 3 times with 300 μl per well of washing buffer.
Detection was performed by adding 100 μl of HRP labeled detection secondary antibody at an appropriate dilution and incubating the plate at room temperature for 1 hour under gentle agitation. The plate was then washed 3 times with 300 μl per well of washing buffer. For color development, 100 μl of TMB substrate regent, pre-warmed to room temperature, was added to the plate and incubated in the dark at room temperature for 15 min. The reaction was then stopped by adding 100 μl of 650 nm stop solution to the plate and mixed for 1 min at room temperature under gentle agitation. The plate is recorded by reading OD at 650 nm in a plate reader within 20 min after terminating the reaction.

[2] = target: T3, his-tagged-DLL3 antigen (purified human/cynomolgus/dog/mouse/rat or minipig DLL3 antigen) (human/cynomolgus/dog/mouse/rat or …); test: biolayer interferometry (Octet BLItz), his-tagged DLL3 on nickel-NTA tip, minibody in solution
T3 construct: Antigen loaded on nickel-NTA tips for biolayer interferometry; also called Delta-like protein 3
T3 sequence (Q9NYJ7 whole entry): as above
Protocol: (§2) As disclosed herein, the binding kinetics of the novel antigen binding constructs to a purified human/cynomolgus/dog/mouse/rat or minipig DLL3 antigen was assessed using biolayer interferometry (TABLE 9) (FIG. 9). The his-tagged-DLL3 antigen was diluted in phosphate buffer saline (PBS) at 10 μg/mL and loaded on a nickel-NTA tip until saturation. The on-rate (Kon) and off-rate (Koff), and the dissociation constant KD, where recorded on Octet BLItz instrument. Dilution samples of the antigen binding construct were prepared in PBS at concentrations between 100 nM and 0.1 nM, by 2.5× dilutions and binding curves recorded at each concentration. Off-rate curves were recorded by immersion of the tip in PBS.

[3] = target: T2, purified human/cynomolgus/dog/mouse/rat …; test: ELISA on plate-coated recombinant DLL3 antigen, A650 readout, left panel 'DLL3 ELISA'; the table gives no unit, nM is from the axis 'Antibody Concentration (nM)'
Protocol: as §1, with “The dilution samples were transferred to the assay plate and incubated at room temperature for 1 hour under gentle agitation. The plate was then washed 3 times with 300 μl per well of washing buffer.” left out
(§3) Detection was performed by adding 100 μl of HRP labeled detection secondary antibody at an appropriate dilution and incubating the plate at room temperature for 1 hour under gentle agitation. […] The plate is recorded by reading OD at 650 nm in a plate reader within 20 min after terminating the reaction.

[4] = target: T3, his-tagged-DLL3 antigen (purified …); test: biolayer interferometry, his-tagged DLL3 on a Ni-NTA tip, minibody at 100 nM; the table gives no unit, nm is from the axis 'Binding (nm)'
Protocol: as §2

[5] = target: T1, DLL3 on tumor cells of the SHP-77 and …; test: flow cytometry on SHP-77 tumor cells, mean fluorescence; the legend gives no unit, nM is from the axis '[Minibody],nM'
Protocol: (§4) As disclosed herein, the binding of constructs to cellular targets was assessed using flow cytometry. Stock of 2.5× serial dilution of minibodies were created starting from a concentration of 100 nM in 180 μl FACS buffer (PBS 2% FBS). Cells were added to a Corning V-bottom polypropylene cell culture plate at 200,000 cells/well. The cells were centrifuged at 100 rpm for 3 minutes and the supernatant discarded. The minibody dilution series were transferred to the plate containing cell pellets and incubated for 1 hr at 4° C. The plate was then washed 3 times with FACS buffer at 200 μl/well, discarding supernatant after each wash by centrifugation at 1000 rpm. 50 μl/well of detection antibody R&D AlexaFluor-647 Goat anti Human (H+L) was added at a 1:100 dilution in FACS buffer and incubated at 4° C. 1 hr. The plate was washed 3 times with FACS buffer at 200 μl/well, discarding supernatant after each wash by centrifuging at 1000 rpm. Cells were then fixed by adding 100 μl of 1% paraformaldehyde in PBS and incubating at room temperature for 15 minutes. 100 μl of PBS were added to each well and the plate was analyzed by flow cytometry using the allophycocyanin fluorescence setting.

[6] = target: T1, DLL3 on tumor cells of the SHP-77 and …; test: flow cytometry on NCI-H82 tumor cells, mean fluorescence; the legend gives no unit, nM is from the axis '[Minibody],nM'
Protocol: as §4

[7] = target: T2, purified human/cynomolgus/dog/mouse/rat …; test: ELISA on plate-coated recombinant DLL3 antigen, A650 readout, panel with IAB57M1-7, IAB57M2-8, IAB57M1-3 and IAB57M2-6; the table gives no unit, nM is from the axis 'Antibody Concentration (nM)'
Protocol: as §1, with “The dilution samples were transferred to the assay plate and incubated at room temperature for 1 hour under gentle agitation. The plate was then washed 3 times with 300 μl per well of washing buffer.” left out
as §3

Row | EC50 [1] [pM] | Kd [2] [pM] | koff [2] [s⁻¹] | kon [2] [M⁻¹ s⁻¹] | EC50 [3] [pM] | R equilibrium [4] [nm] | EC50 [5] [pM] | EC50 [6] [pM] | EC50 [7] [pM] | Binder
1 | 94.6 | 3330 | 0.00279 | 838000 | 115 |  |  |  |  | IAB57M1-1 (other, Parental minibody; also called parental minibody IAB57M1-1) EIVMTQSPATLSVSPGERATLSCKASQSVSNDVVWYQQKPGQAPRLLIYYASNRYTGIPARFSGSGSGTEFTLTISSLQSEDFAVYYCQQDYTSPWTFGQGTKLEIKGSTSGGGSGGGSGGGGSSQVQLVQSGAEVKKPGASVKVSCKASGYTFTNYGMNWVRQAPGQGLEWMGWINTYTGEPTYADDFKGRVTMTTDTSTSTAYMELRSLRSDDTAVYYCARIGDSSPSDYWGQGTLVTVSSEPKSSDKTHTCPPCPPCGGGSSGGGSGGQPREPQVYTLPPSREEMTKNQVSLTCLVKGFYPSDIAVEWESNGQPENNYKTTPPVLDSDGSFFLYSKLTVDKSRWQQGNVFSCSVMHEALHNHYTQKSLSLSPG
2 | 111 |  |  |  |  |  |  |  |  | IAB57M1-7 (other, Signal peptide left out) EIVMTQSPATLSVSPGERATLSCKASQSVSNDVVWYQQKPGQAPRLLIYDASNRNTGIPARFSGSGSGTEFTLTISSLQSEDFAVYYCQQDYTSPWTFGQGTKLEIKGSTSGGGSGGGSGGGGSSQVQLVQSGAEVKKPGASVKVSCKASGYTFTNYGMNWVRQAPGQGLEWMGWINTYTGEPTYADDFKGRVTMTTDTSTSTAYMELRSLRSDDTAVYYCARIGDSSPSDYWGQGTLVTVSSEPKSSDKTHTCPPCPPCGGGSSGGGSGGQPREPQVYTLPPSREEMTKNQVSLTCLVKGFYPSDIAVEWESNGQPENNYKTTPPVLDSDGSFFLYSKLTVDKSRWQQGNVFSCSVMHEALHNHYTQKSLSLSPG
3 | 125 |  |  |  |  |  |  |  |  | IAB57M1-5 (other, Signal peptide left out) EIVMTQSPATLSVSPGERATLSCKASQSVSNDVVWYQQKPGQAPRLLIYYASNRNTGIPARFSGSGSGTEFTLTISSLQSEDFAVYYCQQDYTSPWTFGQGTKLEIKGSTSGGGSGGGSGGGGSSQVQLVQSGAEVKKPGASVKVSCKASGYTFTNYGMNWVRQAPGQGLEWMGWINTYTGEPTYADDFKGRVTMTTDTSTSTAYMELRSLRSDDTAVYYCARIGDSSPSDYWGQGTLVTVSSEPKSSDKTHTCPPCPPCGGGSSGGGSGGQPREPQVYTLPPSREEMTKNQVSLTCLVKGFYPSDIAVEWESNGQPENNYKTTPPVLDSDGSFFLYSKLTVDKSRWQQGNVFSCSVMHEALHNHYTQKSLSLSPG
4 | 120 | 3070 | 0.00214 | 698000 | 132 | 0.876 |  |  |  | IAB57M2-2 (other, Parental minibody; Signal peptide left out; also called parental minibody IAB57M2-2) QVQLVQSGAEVKKPGASVKVSCKASGYTFTNYGMNWVRQAPGQGLEWMGWINTYTGEPTYADDFKGRVTMTTDTSTSTAYMELRSLRSDDTAVYYCARIGDSSPSDYWGQGTLVTVSSGSTSGGGSGGGSGGGGSSEIVMTQSPATLSVSPGERATLSCKASQSVSNDVVWYQQKPGQAPRLLIYYASNRYTGIPARFSGSGSGTEFTLTISSLQSEDFAVYYCQQDYTSPWTFGQGTKLEIKEPKSSDKTHTCPPCPPCGGGSSGGGSGGQPREPQVYTLPPSREEMTKNQVSLTCLVKGFYPSDIAVEWESNGQPENNYKTTPPVLDSDGSFFLYSKLTVDKSRWQQGNVFSCSVMHEALHNHYTQKSLSLSPG
5 | 118 | 4840 | 0.00281 | 581000 |  | 0.911 |  |  |  | IAB57M2-4 (other, Signal peptide left out) QVQLVQSGAEVKKPGASVKVSCKASGYTFTNYGMNWVRQAPGQGLEWMGWINTYTGEPTYADDFKGRVTMTTDTSTSTAYMELRSLRSDDTAVYYCARIGDSSPSDYWGQGTLVTVSSGSTSGGGSGGGSGGGGSSEIVMTQSPATLSVSPGERATLSCKASQSVSNDVVWYQQKPGQAPRLLIYDASNRYTGIPARFSGSGSGTEFTLTISSLQSEDFAVYYCQQDYTSPWTFGQGTKLEIKEPKSSDKTHTCPPCPPCGGGSSGGGSGGQPREPQVYTLPPSREEMTKNQVSLTCLVKGFYPSDIAVEWESNGQPENNYKTTPPVLDSDGSFFLYSKLTVDKSRWQQGNVFSCSVMHEALHNHYTQKSLSLSPG
6 | 161 | < 1 | < 1e-07 | 785000 |  |  | 14 | 63 | 157 | IAB57M2-6 (other, Signal peptide left out) QVQLVQSGAEVKKPGASVKVSCKASGYTFTNYGMNWVRQAPGQGLEWMGWINTYTGEPTYADDFKGRVTMTTDTSTSTAYMELRSLRSDDTAVYYCARIGDSSPSDYWGQGTLVTVSSGSTSGGGSGGGSGGGGSSEIVMTQSPATLSVSPGERATLSCKASQSVSNDVVWYQQKPGQAPRLLIYYASNRNTGIPARFSGSGSGTEFTLTISSLQSEDFAVYYCQQDYTSPWTFGQGTKLEIKEPKSSDKTHTCPPCPPCGGGSSGGGSGGQPREPQVYTLPPSREEMTKNQVSLTCLVKGFYPSDIAVEWESNGQPENNYKTTPPVLDSDGSFFLYSKLTVDKSRWQQGNVFSCSVMHEALHNHYTQKSLSLSPG
7 | 123 |  |  |  |  |  |  |  |  | IAB57M2-8 (other, Signal peptide left out) QVQLVQSGAEVKKPGASVKVSCKASGYTFTNYGMNWVRQAPGQGLEWMGWINTYTGEPTYADDFKGRVTMTTDTSTSTAYMELRSLRSDDTAVYYCARIGDSSPSDYWGQGTLVTVSSGSTSGGGSGGGSGGGGSSEIVMTQSPATLSVSPGERATLSCKASQSVSNDVVWYQQKPGQAPRLLIYDASNRNTGIPARFSGSGSGTEFTLTISSLQSEDFAVYYCQQDYTSPWTFGQGTKLEIKEPKSSDKTHTCPPCPPCGGGSSGGGSGGQPREPQVYTLPPSREEMTKNQVSLTCLVKGFYPSDIAVEWESNGQPENNYKTTPPVLDSDGSFFLYSKLTVDKSRWQQGNVFSCSVMHEALHNHYTQKSLSLSPG

From US20260234226A1 (IMAGINAB, published 2026)
